# Source: paper PMC5207153, “Differential Receptor Binding and Regulatory Mechanisms for the Lymphangiogenic Growth Factors Vascular Endothelial Growth Factor (VEGF)-C and -D*^([image sbox.jpg])” (The Journal of Biological Chemistry, 2016)
# B1: VEGF-DΔNΔC [human] / Recombinant human VEGFR-3-Fc chimera [human] (parent complex)
# chain 1: FYDIETLKVIDEEWQRTQCSPRETCVEVASELGKSTNTFFKPPCVNVFRCGGCCNEESLICMNTSTSYISKQLFEISVPLTSVPELVPVKVANHTGCKCLPTAPRHPYS
# chain 2: YSMTPPTLNITEESHVIDTGDSLSISCRGQHPLEWAWPGAQEAPATGDKDSEDTGVVRDCEGTDARPYCKVLLLHEVHANDTGSYVCYYKYIKARIEGTTAASSYVFVRDFEQPFINKPDTLLVNRKDAMWVPCLVSIPGLNVTLRSQSSVLWPDGQEVVWDDRRGMLVSTPLLHDALYLQCETTWGDQDFLSNPFLVHITGNELYDIQLLPRKSLELLVGEKLVLNCTVWAEFNSGVTFDWDYPGKQAERGKWVPERRSQQTHTELSSILTIHNVSQHDLGSYVCKANNGIQRFRESTEVIVHENPFISVEWLKGPILEATAGDELVKLPVKLAAYPPPEFQWYKDGKALSGRHSPHALVLKEVTEASTGTYTLALWNSAAGLRRNISLELVVNVPPQIHEKEASSPSIYSRHSRQALTCTAYGVPLPLSIQWHWRPWTPCKMFAQRSLRRRQQQDLMPQCRDWRAVTTQDAVNPIESLDTWTEFVEGKNKTVSKLVIQNANVSAMYKCVVSNKVGQDERLIYFYVTTIPDGFTIESKPSEELLEGQPVLLSCQADSYKYEHLRWYRLNLSTLHDAHGNPLLLDCKNVHLFATPLAASLEEVAPGARHATLSLSIPRVAPEHEGHYVCEVQDRRSHDKHCHKKYLSVQALEAPRLTQNLTDLLVNVSDSLEMQCLVAGAHAPSIVWYKDERLLEEKSGVDLADSNQKLSIQRVREEDAGRYLCSVCNAKGCVNSSASVAVEGSEDKGSME
# B2: VEGF-DΔNΔC [human] / Recombinant human VEGFR-2-Fc chimera [human] (parent complex)
# chain 1: B1 chain 1
# chain 2: ASVGLPSVSLDLPRLSIQKDILTIKANTTLQITCRGQRDLDWLWPNNQSGSEQRVEVTECSDGLFCKTLTIPKVIGNDTGAYKCFYRETDLASVIYVYVQDYRSPFIASVSDQHGVVYITENKNKTVVIPCLGSISNLNVSLCARYPEKRFVPDGNRISWDSKKGFTIPSYMISYAGMVFCEAKINDESYQSIMYIVVVVGYRIYDVVLSPSHGIELSVGEKLVLNCTARTELNVGIDFNWEYPSSKHQHKKLVNRDLKTQSGSEMKKFLSTLTIDGVTRSDQGLYTCAASSGLMTKKNSTFVRVHEKPFVAFGSGMESLVEATVGERVRIPAKYLGYPPPEIKWYKNGIPLESNHTIKAGHVLTIMEVSERDTGNYTVILTNPISKEKQSHVVSLVVYVPPQIGEKSLISPVDSYQYGTTQTLTCTVYAIPPPHHIHWYWQLEEECANEPSQAVSVTNPYPCEEWRSVEDFQGGNKIEVNKNQFALIEGKNKTVSTLVIQAANVSALYKCEAVNKVGRGERVISFHVTRGPEITLQPDMQPTEQESVSLWCTADRSTFENLTWYKLGPQPLPIHVGELPTPVCKNLDTLWKLNATMFSNSTNDILIMELKNASLQDQGDYVCLAQDRKTKKRHCVVRQLTVLERVAPTITGNLENQTTSIGESIEVSCTASGNPPPQIMWFKDNETLVEDSGIVLKDGNRNLTIRRVRKEDEGLYTCQACSVLGCAKVEAFFIIEGAQEKTNLE
# Variants of: B1
# Experiment: ELISA; The same amount of each VEGF-DΔNΔC variant was used; assays conducted three times; parent: 100; read off a plot
row,Variant,percent of parent [%]
1,chain 1 D11A,~160
2,chain 1 I4A,~99
3,chain 1 F1A,~72
4,chain 1 D3A,~96
5,chain 1 E12A,~100
6,chain 1 E5A,~99
7,chain 1 E13A,~13

# Further lines, results first:
row,percent of parent [%],Variant
1,~72,chain 1 W14A
2,~100,chain 1 R16A
3,~110,chain 1 Q15A
4,~87,chain 1 K8A
5,~9,chain 1 I10A
6,~100,chain 1 V9A
7,~97,chain 1 T6A
8,~3,chain 1 L7A
9,~23,chain 1 Y2A

# Variants of: B2
# Experiment: as above
row,Variant,percent of parent [%]
1,chain 1 D3A,~95
2,chain 1 E5A,~99
3,chain 1 F1A,~89
4,chain 1 E12A,~100
5,chain 1 I4A,~100
6,chain 1 E13A,~14
7,chain 1 D11A,~100

# Next, values leading:
row,percent of parent [%],Variant
1,~19,chain 1 L7A
2,~20,chain 1 I10A
3,~62,chain 1 W14A
4,~110,chain 1 Q15A
5,~88,chain 1 K8A
6,~100,chain 1 T6A
7,~110,chain 1 V9A
8,~86,chain 1 Y2A
9,~110,chain 1 R16A
